Measured values as given in publication PMC11063343 (Frontiers in Cellular and Infection Microbiology, 2024).
No end group written: not given here. *: point of attachment. Biotin = O=C1N[C@H]2[C@H](CS[C@H]2CCCCC(=O)*)N1

Biological target: T1, full length SARS-CoV-2 spike protein (SARS-CoV-2, UniProt P0DTC2)
T1 construct: source: bought: ACROBiosystems
Assay: SPR
Conditions: both partners purified

Binder: Biotin-MYCVFNRNEDACRYG (cysteine pairing not given here) [cellugyrin Inner loop 1A peptide]
- Kd: 4.53 mM
